# Measurements from publication PMC8610599.
# Key:
# Assay in all cases: BLI
# [1] = target: PGT151; settings: parent: est. 1.6; read off a plot
# [2] = target: VRC01; settings: parent: est. 0.38; read off a plot
# [3] = target: PGDM1400; settings: parent: est. 0.40; read off a plot
# [4] = target: PGT121; settings: parent: est. 0.20; read off a plot
Substance,response (AUC (2G12 normalized)) [1],response (AUC (2G12 normalized)) [2],response (AUC (2G12 normalized)) [3],response (AUC (2G12 normalized)) [4]
LAI SOSIP.664 trimer F53V,1.5,0.45,0.33,0.18
LAI SOSIP.664 trimer F53V; Q567R,1.5,0.4,0.35,0.22
LAI SOSIP.664 trimer Q567R,1.6,0.42,0.3,0.22
LAI SOSIP.664 trimer Q590A,1.5,0.62,0.35,0.18
LAI SOSIP.664 trimer Q590A; S164G,1.4,0.7,0.2,0.17
LAI SOSIP.664 trimer R585F,1.5,0.4,0.35,0.15
LAI SOSIP.664 trimer R585F; Q567R,1.5,0.4,0.35,0.17
LAI SOSIP.664 trimer S164G,1.5,0.47,0.25,0.22
LAI SOSIP.664 trimer Y586W,1.3,0.88,0.42,0.18
LAI SOSIP.664 trimer Y586W; Q567R,1.5,0.55,0.3,0.2
